Results taken from patent US20230416346.

Legend:
[1] = biological target: recombinant human full-length SPARC (R&D Systems) (UniProt P09486)
[2] = biological target: human SPARC secreted by human mammary fibroblasts (HMFs) (UniProt P09486)
Sequence of human SPARC secreted by human mammary fibroblasts (HMFs) (P09486 18-303): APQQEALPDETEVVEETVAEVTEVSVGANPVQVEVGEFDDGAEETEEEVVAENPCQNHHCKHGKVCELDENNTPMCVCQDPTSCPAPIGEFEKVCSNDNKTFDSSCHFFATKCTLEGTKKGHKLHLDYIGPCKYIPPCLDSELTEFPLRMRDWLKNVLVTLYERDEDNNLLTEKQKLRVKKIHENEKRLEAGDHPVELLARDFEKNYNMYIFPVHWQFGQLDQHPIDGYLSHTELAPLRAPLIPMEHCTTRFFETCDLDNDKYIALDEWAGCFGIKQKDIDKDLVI

Sequence of human cath-D secreted by TNBC cells (MDA-MB-231) (chain, as listed by the source): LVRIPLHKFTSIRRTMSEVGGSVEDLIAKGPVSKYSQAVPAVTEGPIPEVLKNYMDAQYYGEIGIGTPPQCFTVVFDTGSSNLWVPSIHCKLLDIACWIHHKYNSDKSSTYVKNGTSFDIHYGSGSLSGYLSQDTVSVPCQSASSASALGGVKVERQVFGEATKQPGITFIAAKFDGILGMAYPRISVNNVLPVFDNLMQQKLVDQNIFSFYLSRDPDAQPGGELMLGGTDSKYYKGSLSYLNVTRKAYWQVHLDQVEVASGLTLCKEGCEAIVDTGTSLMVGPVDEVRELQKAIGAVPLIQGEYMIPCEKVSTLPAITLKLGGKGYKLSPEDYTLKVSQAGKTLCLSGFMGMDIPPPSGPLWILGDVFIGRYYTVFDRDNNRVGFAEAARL
Sequence of recombinant human full-length SPARC (R&D Systems) (P09486 18-303): as the sequence (P09486 18-303) above
Sequence of auto-activated 51-kDa pseudo-cath-D (recombinant human cathepsin D) (chain, as listed by the source): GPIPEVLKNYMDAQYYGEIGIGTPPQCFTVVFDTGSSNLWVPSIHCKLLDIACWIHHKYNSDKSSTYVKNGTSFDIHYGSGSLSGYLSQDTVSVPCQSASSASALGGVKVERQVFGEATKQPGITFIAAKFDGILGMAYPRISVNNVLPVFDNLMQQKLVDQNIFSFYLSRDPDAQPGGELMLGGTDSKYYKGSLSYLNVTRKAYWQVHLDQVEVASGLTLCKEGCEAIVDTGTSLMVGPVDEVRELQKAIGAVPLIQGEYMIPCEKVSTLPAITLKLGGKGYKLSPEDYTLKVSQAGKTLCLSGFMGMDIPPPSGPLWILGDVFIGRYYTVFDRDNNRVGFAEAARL

## fully-mature cath-D (34+14-kDa) (recombinant human cathepsin D)
[1]
  ATOMS ratio (Mature cath-D + SPARC - pepst./Mature cath-D + SPARC + pepst.), peptide DQHPIDGYLSHTELAPLR [239-256], trypsin: 8.1
  ATOMS ratio (Mature cath-D + SPARC - pepst./Mature cath-D + SPARC + pepst.), peptide DWLKNVLVTLYER [169-181], trypsin: 0.5
  ATOMS ratio (Mature cath-D + SPARC - pepst./Mature cath-D + SPARC + pepst.), peptide EAGDHPVELLAR [207-218], trypsin: 19.3
  ATOMS ratio (Mature cath-D + SPARC - pepst./Mature cath-D + SPARC + pepst.), peptide FGQLDQHPIDGYLSHTELAPLR [235-256], trypsin: 5.9
  ATOMS ratio (Mature cath-D + SPARC - pepst./Mature cath-D + SPARC + pepst.), peptide GQLDQHPIDGYLSHTELAPLR [236-256], trypsin: 2.3
  ATOMS ratio (Mature cath-D + SPARC - pepst./Mature cath-D + SPARC + pepst.), peptide LDSELTEFPLR [156-166], trypsin: 0.4
  ATOMS ratio (Mature cath-D + SPARC - pepst./Mature cath-D + SPARC + pepst.), peptide LSHTELAPLR [247-256], trypsin: 2.4
  ATOMS ratio (Mature cath-D + SPARC - pepst./Mature cath-D + SPARC + pepst.), peptide PLIPMEHCTTR [258-268], trypsin: 4.3
  ATOMS ratio (Mature cath-D + SPARC - pepst./Mature cath-D + SPARC + pepst.), peptide PVHWQFGQLDQHPIDGYLSHTELAPLR [230-256], trypsin: 5.6
  ATOMS ratio (Mature cath-D + SPARC - pepst./Mature cath-D + SPARC + pepst.), peptide QLDQHPIDGYLSHTELAPLR [237-256], trypsin: 2.2
  ATOMS ratio (Mature cath-D + SPARC - pepst./Mature cath-D + SPARC + pepst.), peptide SHTELAPLR [248-256], trypsin: 1.6
  ATOMS ratio (Mature cath-D + SPARC - pepst./Mature cath-D + SPARC + pepst.), peptide VTLYERDEDNNLLTEK [176-191], trypsin: 14.3
  ATOMS ratio (Mature cath-D + SPARC - pepst./Mature cath-D + SPARC + pepst.), peptide WQFGQLDQHPIDGYLSHTELAPLR [233-256], trypsin: 3.1
  ATOMS ratio (Mature cath-D + SPARC - pepst./Mature cath-D + SPARC + pepst.), peptide YERDEDNNLLTEK [179-191], trypsin: 11.8
  ATOMS ratio (Mature cath-D + SPARC - pepst./Mature cath-D + SPARC + pepst.), peptide YERDEDNNLLTEKQK [179-193], trypsin: 16.8
  ATOMS ratio (Mature cath-D + SPARC - pepst./Mature cath-D + SPARC + pepst.), peptide YLSHTELAPLR [246-256], trypsin: 5.7
  SPARC cleavage at pH 5.9, ATOMS and silver staining: We detected SPARC cleavage fragments of similar size also after incubation with the fully mature 34+14-kDa cath-D form at pH 5.9

## human cath-D secreted by TNBC cells (MDA-MB-231)
[2]
  SPARC cleavage in MDA-MB-231/HMF conditioned medium at pH 5.5, immunoblot: SPARC was hydrolysed in a time-dependent manner in the conditioned medium at pH 5.5
  SPARC cleavage in MDA-MB-231/HMF conditioned medium at pH 6.8 to 5.5, immunoblot: in the MDA-MB-231/HMF conditioned medium, SPARC was significantly degraded up to pH 6.2
  TAILS ratio (CM - pepst./CM + pepst.), peptide DQHPIDGYLSHTELAPLR [239-256], trypsin: 7.6
  TAILS ratio (CM - pepst./CM + pepst.), peptide EAGDHPVELLAR [207-218], trypsin: 3.4
  TAILS ratio (CM - pepst./CM + pepst.), peptide GQLDQHPIDGYLSHTELAPLR [236-256], trypsin: 12.4
  TAILS ratio (CM - pepst./CM + pepst.), peptide PLIPMEHCTTR [258-268], trypsin: 5.9
  TAILS ratio (CM - pepst./CM + pepst.), peptide QLDQHPIDGYLSHTELAPLR [237-256], trypsin: 15.1
  TAILS ratio (CM - pepst./CM + pepst.), peptide YLSHTELAPLR [246-256], trypsin: 4.4

## auto-activated 51-kDa pseudo-cath-D (recombinant human cathepsin D)
[1]
  ATOMS ratio (Pseudo-cathD + SPARC - pepst./Pseudo-cath-D + SPARC + pepst), peptide DQHPIDGYLSHTELAPLR [239-256], trypsin: 8.4
  ATOMS ratio (Pseudo-cathD + SPARC - pepst./Pseudo-cath-D + SPARC + pepst), peptide EAGDHPVELLAR [207-218], trypsin: 11.3
  ATOMS ratio (Pseudo-cathD + SPARC - pepst./Pseudo-cath-D + SPARC + pepst), peptide FGQLDQHPIDGYLSHTELAPLR [235-256], trypsin: 10.6
  ATOMS ratio (Pseudo-cathD + SPARC - pepst./Pseudo-cath-D + SPARC + pepst), peptide GQLDQHPIDGYLSHTELAPLR [236-256], trypsin: 2
  ATOMS ratio (Pseudo-cathD + SPARC - pepst./Pseudo-cath-D + SPARC + pepst), peptide PLIPMEHCTTR [258-268], trypsin: 22.5
  ATOMS ratio (Pseudo-cathD + SPARC - pepst./Pseudo-cath-D + SPARC + pepst), peptide QLDQHPIDGYLSHTELAPLR [237-256], trypsin: 3.5
  ATOMS ratio (Pseudo-cathD + SPARC - pepst./Pseudo-cath-D + SPARC + pepst), peptide SHTELAPLR [248-256], trypsin: 2.7
  ATOMS ratio (Pseudo-cathD + SPARC - pepst./Pseudo-cath-D + SPARC + pepst), peptide VTLYERDEDNNLLTEK [176-191], trypsin: 12.1
  ATOMS ratio (Pseudo-cathD + SPARC - pepst./Pseudo-cath-D + SPARC + pepst), peptide YERDEDNNLLTEK [179-191], trypsin: 13.7
  ATOMS ratio (Pseudo-cathD + SPARC - pepst./Pseudo-cath-D + SPARC + pepst), peptide YERDEDNNLLTEKQK [179-193], trypsin: 21.1
  ATOMS ratio (Pseudo-cathD + SPARC - pepst./Pseudo-cath-D + SPARC + pepst), peptide YLSHTELAPLR [246-256], trypsin: 18.8
  SPARC cleavage at pH 5.9, ATOMS and silver staining: SPARC was hydrolysed by the 51-kDa cath-D form exclusively in its extracellular Ca2+ binding domain, releasing five main SPARC fragments (34-, 27, 16, 9-, and 6-kDa) at pH 5.9
  SPARC cleavage, pH dependence (6.8 to 5.5), SDS-PAGE and immunoblot: experiments in which pH was gradually reduced from 6.8 to 5.5 showed progressive limited proteolysis of SPARC at lower pH
  SPARC cleavage, time course at pH 5.9, SDS-PAGE and immunoblot: At pH 5.9, SPARC was hydrolysed by cath-D in a time-dependent manner
